Laboratory results from publication PMC9482650, “Quantitative fragmentomics allow affinity mapping of interactomes” (Nature Communications, 2022).

B1: PLEKHG7, Q6ZR37 (peptide)
chain: FTLPAESSEI

molecular target: T1, SNTG1, Q9NSN8; experiment: holdup assay; parameters: key: below the threshold = too weak to quantify, mostly under pKd 3.1 to 4; settings: plain residues with an end cap or a label only (N-terminal biotin on a linker: ado-ado)
T1 sequence (Q9NSN8 52-150, limits assumed, looked up): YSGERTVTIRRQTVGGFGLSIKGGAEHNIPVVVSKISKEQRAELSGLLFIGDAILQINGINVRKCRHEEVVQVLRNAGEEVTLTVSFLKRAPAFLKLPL

| Binder | pKd |
| --- | --- |
| B1 | below the threshold |

molecular target: NHERF4_1, Q86UT5-2; experiment: holdup assay; parameters: key: below the threshold = too weak to quantify, mostly under pKd 3.1 to 4; settings: plain residues with an end cap or a label only (N-terminal biotin on a linker: ado-ado)
Sequence (Q86UT5 other isoform, or with tags, fused parts or gaps): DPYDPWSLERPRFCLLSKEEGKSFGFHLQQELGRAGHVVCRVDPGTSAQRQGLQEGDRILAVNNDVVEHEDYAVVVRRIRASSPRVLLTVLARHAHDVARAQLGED

| Binder | pKd |
| --- | --- |
| B1 | below the threshold |

molecular target: MAGI2_4, Q86UL8; experiment: holdup assay; parameters: key: below the threshold = too weak to quantify, mostly under pKd 3.1 to 4; settings: plain residues with an end cap or a label only (N-terminal biotin on a linker: ado-ado)
Sequence (Q86UL8 772-865): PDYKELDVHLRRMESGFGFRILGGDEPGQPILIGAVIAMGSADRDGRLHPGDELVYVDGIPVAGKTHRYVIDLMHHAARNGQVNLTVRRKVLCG

| Binder | pKd |
| --- | --- |
| B1 | below the threshold |

molecular target: T2, PTPN13_1, Q12923; experiment: holdup assay; parameters: key: below the threshold = too weak to quantify, mostly under pKd 3.1 to 4; settings: plain residues with an end cap or a label only (N-terminal biotin on a linker: ado-ado)
T2 sequence (Q12923 1088-1188, limits assumed, looked up): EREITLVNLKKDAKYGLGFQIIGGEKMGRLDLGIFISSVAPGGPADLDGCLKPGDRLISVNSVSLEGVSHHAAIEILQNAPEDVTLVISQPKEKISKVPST

| Binder | pKd |
| --- | --- |
| B1 | below the threshold |

molecular target: AHNAK1, Q09666; experiment: holdup assay; parameters: key: below the threshold = too weak to quantify, mostly under pKd 3.1 to 4; settings: plain residues with an end cap or a label only (N-terminal biotin on a linker: ado-ado)
Sequence (Q09666 4-100): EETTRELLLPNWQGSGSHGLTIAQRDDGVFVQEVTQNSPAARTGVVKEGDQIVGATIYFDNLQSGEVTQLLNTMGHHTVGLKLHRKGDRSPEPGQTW

| Binder | pKd |
| --- | --- |
| B1 | below the threshold |

molecular target: T3, MPDZ_5, O75970; experiment: holdup assay; parameters: key: below the threshold = too weak to quantify, mostly under pKd 3.1 to 4; settings: plain residues with an end cap or a label only (N-terminal biotin on a linker: ado-ado)
T3 sequence (O75970 695-796, limits assumed, looked up): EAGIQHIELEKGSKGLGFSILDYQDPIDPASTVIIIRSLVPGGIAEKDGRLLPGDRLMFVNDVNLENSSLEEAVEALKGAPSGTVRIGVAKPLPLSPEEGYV

| Binder | pKd |
| --- | --- |
| B1 | below the threshold |

molecular target: PTPN3, P26045; experiment: holdup assay; parameters: key: below the threshold = too weak to quantify, mostly under pKd 3.1 to 4; settings: plain residues with an end cap or a label only (N-terminal biotin on a linker: ado-ado)
Sequence (P26045 505-587): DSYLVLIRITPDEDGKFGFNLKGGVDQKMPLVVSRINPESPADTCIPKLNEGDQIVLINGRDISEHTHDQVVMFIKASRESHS

| Binder | pKd |
| --- | --- |
| B1 | 3.55 |

molecular target: Inadl_3, Q8NI35; experiment: holdup assay; parameters: key: below the threshold = too weak to quantify, mostly under pKd 3.1 to 4; settings: plain residues with an end cap or a label only (N-terminal biotin on a linker: ado-ado)
Sequence (Q8NI35 359-469): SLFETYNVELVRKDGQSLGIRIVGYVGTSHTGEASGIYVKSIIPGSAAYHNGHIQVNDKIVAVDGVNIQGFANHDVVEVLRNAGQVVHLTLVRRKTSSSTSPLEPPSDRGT

| Binder | pKd |
| --- | --- |
| B1 | below the threshold |

molecular target: LIMK2, P53671; experiment: holdup assay; parameters: key: below the threshold = too weak to quantify, mostly under pKd 3.1 to 4; settings: plain residues with an end cap or a label only (N-terminal biotin on a linker: ado-ado)
Sequence (P53671 143-248): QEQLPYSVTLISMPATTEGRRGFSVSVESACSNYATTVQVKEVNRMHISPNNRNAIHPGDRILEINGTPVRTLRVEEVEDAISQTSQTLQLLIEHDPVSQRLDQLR

| Binder | pKd |
| --- | --- |
| B1 | below the threshold |

molecular target: T4, DFNB31_1, Q9P202; experiment: holdup assay; parameters: key: below the threshold = too weak to quantify, mostly under pKd 3.1 to 4; settings: plain residues with an end cap or a label only (N-terminal biotin on a linker: ado-ado)
T4 sequence (Q9P202 135-233, limits assumed, looked up): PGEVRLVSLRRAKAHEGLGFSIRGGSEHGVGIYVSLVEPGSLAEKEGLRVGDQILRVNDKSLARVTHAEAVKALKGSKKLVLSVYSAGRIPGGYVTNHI

| Binder | pKd |
| --- | --- |
| B1 | 4.39 |

molecular target: T5, NHERF3_3, Q5T2W1; experiment: holdup assay; parameters: key: below the threshold = too weak to quantify, mostly under pKd 3.1 to 4; settings: plain residues with an end cap or a label only (N-terminal biotin on a linker: ado-ado)
T5 sequence (Q5T2W1 238-333, limits assumed, looked up): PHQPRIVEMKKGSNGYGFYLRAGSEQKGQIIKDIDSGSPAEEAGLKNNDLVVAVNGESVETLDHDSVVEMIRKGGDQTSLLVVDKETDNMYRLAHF

| Binder | pKd |
| --- | --- |
| B1 | below the threshold |

molecular target: T6, RADIL, Q96JH8; experiment: holdup assay; parameters: key: below the threshold = too weak to quantify, mostly under pKd 3.1 to 4; settings: plain residues with an end cap or a label only (N-terminal biotin on a linker: ado-ado)
T6 sequence (Q96JH8 971-1071, limits assumed, looked up): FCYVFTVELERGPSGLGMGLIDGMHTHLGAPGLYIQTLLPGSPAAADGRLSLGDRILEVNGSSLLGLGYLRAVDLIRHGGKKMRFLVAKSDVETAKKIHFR

| Binder | pKd |
| --- | --- |
| B1 | below the threshold |

molecular target: Inadl_10, Q8NI35; experiment: holdup assay; parameters: key: below the threshold = too weak to quantify, mostly under pKd 3.1 to 4; settings: plain residues with an end cap or a label only (N-terminal biotin on a linker: ado-ado)
Sequence (Q8NI35 1673-1763): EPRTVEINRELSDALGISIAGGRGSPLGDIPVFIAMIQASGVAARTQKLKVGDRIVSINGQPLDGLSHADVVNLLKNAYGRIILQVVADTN

| Binder | pKd |
| --- | --- |
| B1 | below the threshold |

molecular target: TJP1_3, Q07157; experiment: holdup assay; parameters: key: below the threshold = too weak to quantify, mostly under pKd 3.1 to 4; settings: plain residues with an end cap or a label only (N-terminal biotin on a linker: ado-ado)
Sequence (Q07157 416-512): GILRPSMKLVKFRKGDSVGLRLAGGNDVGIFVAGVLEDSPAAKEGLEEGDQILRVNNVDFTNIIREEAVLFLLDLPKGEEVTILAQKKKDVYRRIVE

| Binder | pKd |
| --- | --- |
| B1 | below the threshold |

molecular target: MAGI1_2, Q96QZ7; experiment: holdup assay; parameters: key: below the threshold = too weak to quantify, mostly under pKd 3.1 to 4; settings: plain residues with an end cap or a label only (N-terminal biotin on a linker: ado-ado)
Sequence (Q96QZ7 456-580): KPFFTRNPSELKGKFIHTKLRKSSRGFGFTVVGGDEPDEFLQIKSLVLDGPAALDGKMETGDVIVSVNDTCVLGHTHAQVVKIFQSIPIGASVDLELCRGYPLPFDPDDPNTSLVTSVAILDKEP

| Binder | pKd |
| --- | --- |
| B1 | below the threshold |

molecular target: T7, LIN7A, O14910; experiment: holdup assay; parameters: key: below the threshold = too weak to quantify, mostly under pKd 3.1 to 4; settings: plain residues with an end cap or a label only (N-terminal biotin on a linker: ado-ado)
T7 sequence (O14910 103-200, limits assumed, looked up): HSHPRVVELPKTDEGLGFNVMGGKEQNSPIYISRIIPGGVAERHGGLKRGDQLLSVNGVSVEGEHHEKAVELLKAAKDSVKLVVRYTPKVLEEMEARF

| Binder | pKd |
| --- | --- |
| B1 | below the threshold |

molecular target: GORASP2, Q9H8Y8; experiment: holdup assay; parameters: key: below the threshold = too weak to quantify, mostly under pKd 3.1 to 4; settings: plain residues with an end cap or a label only (N-terminal biotin on a linker: ado-ado)

| Binder | pKd |
| --- | --- |
| B1 | below the threshold |

molecular target: T8, RHPN1, Q8TCX5; experiment: holdup assay; parameters: key: below the threshold = too weak to quantify, mostly under pKd 3.1 to 4; settings: plain residues with an end cap or a label only (N-terminal biotin on a linker: ado-ado)
T8 sequence (Q8TCX5 508-602, limits assumed, looked up): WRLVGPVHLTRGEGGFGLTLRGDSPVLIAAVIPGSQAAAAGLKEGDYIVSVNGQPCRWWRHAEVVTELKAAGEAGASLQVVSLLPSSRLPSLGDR

| Binder | pKd |
| --- | --- |
| B1 | 4.68 |

molecular target: LNX1_2, Q8TBB1; experiment: holdup assay; parameters: key: below the threshold = too weak to quantify, mostly under pKd 3.1 to 4; settings: plain residues with an end cap or a label only (N-terminal biotin on a linker: ado-ado)
Sequence (Q8TBB1 371-470): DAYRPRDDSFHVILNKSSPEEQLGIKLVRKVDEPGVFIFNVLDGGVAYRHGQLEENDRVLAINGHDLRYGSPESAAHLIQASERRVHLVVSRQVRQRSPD

| Binder | pKd |
| --- | --- |
| B1 | below the threshold |

molecular target: FRMPD2_2, Q68DX3; experiment: holdup assay; parameters: key: below the threshold = too weak to quantify, mostly under pKd 3.1 to 4; settings: plain residues with an end cap or a label only (N-terminal biotin on a linker: ado-ado)
Sequence (Q68DX3 944-1038): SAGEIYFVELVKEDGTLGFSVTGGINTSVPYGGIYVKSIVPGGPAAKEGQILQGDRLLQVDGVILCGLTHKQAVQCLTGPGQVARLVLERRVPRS

| Binder | pKd |
| --- | --- |
| B1 | below the threshold |

molecular target: FRMPD2_3, Q68DX3; experiment: holdup assay; parameters: key: below the threshold = too weak to quantify, mostly under pKd 3.1 to 4; settings: plain residues with an end cap or a label only (N-terminal biotin on a linker: ado-ado)
Sequence (Q68DX3 1073-1166): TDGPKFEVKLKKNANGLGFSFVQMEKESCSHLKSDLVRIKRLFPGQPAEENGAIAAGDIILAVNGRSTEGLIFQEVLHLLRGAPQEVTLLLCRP

| Binder | pKd |
| --- | --- |
| B1 | below the threshold |

molecular target: T9, DLG3_1, Q92796; experiment: holdup assay; parameters: key: below the threshold = too weak to quantify, mostly under pKd 3.1 to 4; settings: plain residues with an end cap or a label only (N-terminal biotin on a linker: ado-ado)
T9 sequence (Q92796 125-227, limits assumed, looked up): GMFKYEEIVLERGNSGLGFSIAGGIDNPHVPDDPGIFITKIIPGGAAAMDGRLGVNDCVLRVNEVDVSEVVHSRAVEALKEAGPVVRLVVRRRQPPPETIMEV

| Binder | pKd |
| --- | --- |
| B1 | below the threshold |

molecular target: Inadl_9, Q8NI35; experiment: holdup assay; parameters: key: below the threshold = too weak to quantify, mostly under pKd 3.1 to 4; settings: plain residues with an end cap or a label only (N-terminal biotin on a linker: ado-ado)
Sequence (Q8NI35 1530-1615): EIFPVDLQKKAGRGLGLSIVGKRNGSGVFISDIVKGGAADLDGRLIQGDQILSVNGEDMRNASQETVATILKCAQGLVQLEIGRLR

| Binder | pKd |
| --- | --- |
| B1 | below the threshold |

molecular target: T10, DLG3_2, Q92796; experiment: holdup assay; parameters: key: below the threshold = too weak to quantify, mostly under pKd 3.1 to 4; settings: plain residues with an end cap or a label only (N-terminal biotin on a linker: ado-ado)
T10 sequence (Q92796 221-321, limits assumed, looked up): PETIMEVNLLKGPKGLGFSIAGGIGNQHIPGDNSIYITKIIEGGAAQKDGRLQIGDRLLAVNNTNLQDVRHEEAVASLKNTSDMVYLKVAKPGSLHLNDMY

| Binder | pKd |
| --- | --- |
| B1 | 4.19 |

molecular target: T11, SNTG2, Q9NY99; experiment: holdup assay; parameters: key: below the threshold = too weak to quantify, mostly under pKd 3.1 to 4; settings: plain residues with an end cap or a label only (N-terminal biotin on a linker: ado-ado)
T11 sequence (Q9NY99 68-166, limits assumed, looked up): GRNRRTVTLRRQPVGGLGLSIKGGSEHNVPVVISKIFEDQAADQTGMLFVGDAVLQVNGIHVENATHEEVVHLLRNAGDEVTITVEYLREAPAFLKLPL

| Binder | pKd |
| --- | --- |
| B1 | below the threshold |

molecular target: SCRIB_2, Q14160; experiment: holdup assay; parameters: key: below the threshold = too weak to quantify, mostly under pKd 3.1 to 4; settings: plain residues with an end cap or a label only (N-terminal biotin on a linker: ado-ado)
Sequence (Q14160 857-960): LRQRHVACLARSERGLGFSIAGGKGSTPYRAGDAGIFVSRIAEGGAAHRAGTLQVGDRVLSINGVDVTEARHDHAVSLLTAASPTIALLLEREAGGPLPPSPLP

| Binder | pKd |
| --- | --- |
| B1 | below the threshold |

molecular target: DLG1_3, Q12959; experiment: holdup assay; parameters: key: below the threshold = too weak to quantify, mostly under pKd 3.1 to 4; settings: plain residues with an end cap or a label only (N-terminal biotin on a linker: ado-ado)
Sequence (Q12959 457-571): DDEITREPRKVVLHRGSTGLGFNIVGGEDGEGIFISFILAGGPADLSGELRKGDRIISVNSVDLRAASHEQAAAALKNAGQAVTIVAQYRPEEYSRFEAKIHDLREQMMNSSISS

| Binder | pKd |
| --- | --- |
| B1 | below the threshold |
